# Target: T1, recombinant soluble PSMA (rsPSMA) (human, UniProt Q04609 44-750)
# T1 construct: Oligomeric state not specified for the assay; also called secreted rsPSMA; PSMAECTO
# Experiment: Biacore SPR, mAb captured by anti-human IgG, rsPSMA in flow
# Method: It is ideal for screening crude supernatants.
# The entire sensor chip surface was conditioned with five injections of conditioning solution (1 M NaCl, 50 mM NaOH) and equilibrated with PBS buffer containing 0.005% polysorbate 20. Two to three thousand resonance units (RU) of biotinylated anti-human IgG antibody (Sigma) were immobilized onto the SA chip followed by an injection of regeneration buffer (glycine-HCl, pH 2.2). […] For each antibody at one concentration, the chip was regenerated and equilibrated.
# T1 sequence (Q04609 44-750): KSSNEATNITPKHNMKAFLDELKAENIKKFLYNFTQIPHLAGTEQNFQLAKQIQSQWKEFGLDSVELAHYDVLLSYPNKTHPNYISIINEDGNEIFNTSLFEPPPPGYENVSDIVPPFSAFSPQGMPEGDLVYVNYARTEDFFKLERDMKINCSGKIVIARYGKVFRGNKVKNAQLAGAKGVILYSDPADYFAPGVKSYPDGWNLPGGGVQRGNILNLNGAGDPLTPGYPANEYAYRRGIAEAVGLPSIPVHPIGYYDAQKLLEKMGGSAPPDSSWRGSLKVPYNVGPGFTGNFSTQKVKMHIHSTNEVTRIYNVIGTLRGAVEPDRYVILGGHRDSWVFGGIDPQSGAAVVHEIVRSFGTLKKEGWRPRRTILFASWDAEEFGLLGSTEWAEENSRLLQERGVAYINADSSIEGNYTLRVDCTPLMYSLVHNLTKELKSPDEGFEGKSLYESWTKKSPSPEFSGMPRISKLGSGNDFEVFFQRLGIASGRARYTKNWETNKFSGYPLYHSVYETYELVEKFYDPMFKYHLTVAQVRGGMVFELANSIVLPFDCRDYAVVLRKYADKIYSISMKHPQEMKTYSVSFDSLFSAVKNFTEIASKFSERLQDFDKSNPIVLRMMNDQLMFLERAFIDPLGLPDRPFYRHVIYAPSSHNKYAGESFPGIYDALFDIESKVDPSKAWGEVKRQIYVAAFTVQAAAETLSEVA
binder,measurement,value
"PSMA 10.3 (antibody, V domains shown) VH: QEQLVESGGGVVQPGRSLRLSCAASGFTFSTYGMHWVRQAPGKGLEWVAVTWHDGSNKYYADSVKGRFTISRDNSKNTLYLQMNSLRAEDTAVYYCARGGVGATYYYYYGMDVWGQGTTVTVSS VL: not shown",Kd,0.193 nM

# — patent US20110165081A1 (published 2011)
